In patent US20090053180A1, “Tandem cardiac pacemaker system” (priority 2005, published 2009):
“Also recorded” adds a separate entry of the source.

Legend:
[1] = tested on: canine proximal LV conducting system; settings: sinus rhythm suppressed by vagal stimulation; cited from earlier work
[2] = tested on: dogs with complete AV block; experiment: Tandem biological and electronic pacemakers in dogs with complete AV block (injection into left bundle branch); assay type: in vivo, dog
Protocol: Adult mongrel dogs weighing 22-25 kg were anesthetized with propofol 6 mg/kg IV and inhalational isoflurane (1.5%-2.5%). Using a steerable catheter, saline (n=5), AdmHCN2 (n=6) or AdmE324A (n=4) were injected into the left bundle branch (LBB) as described previously (Plotnikov et al., 2004). In 2 additional dogs AdmE324A was injected into the LV septal myocardium as an internal control. Complete AV block was induced via radiofrequency ablation and each site of injection was paced via catheter electrode to distinguish electrocardiographically the origin of the idioventricular rhythm during the follow up period.
An electronic pacemaker (Discovery II, Flextend lead; Guidant, Indianapolis, Ind.) was implanted and set at VVI 45 bpm. ECG, 24 hour Holter monitoring, pacemaker log record check, and overdrive pacing at 80 bpm were performed daily for 14 days. To evaluate beta-adrenergic responsiveness, on day 14, epinephrine (1.0, 1.5 and 2.0 μg/kg/min for up to 10 min each) was infused to an endpoint of a 50% increase in idioventricular rate or ventricular arrhythmia (single ventricular premature beats having a morphology other than that of the dominant idioventricular rhythm or ventricular tachycardia), whichever occurred first. If none of the above responses was observed within 10 min after onset of the maximal dose of 2 μg/kg/min, the infusion was terminated.
Data are presented as means±SEM. […] One-way ANOVA was used to evaluate the effect of an implanted construct on electrophysiological parameters. Subsequent analysis was performed using Bonferroni's test where equal variances were assumed and the Games-Howell test where variances were unequal. A two-way contingency table analysis was conducted to evaluate whether epinephrine had different effects across three groups. Data were analyzed using SPSS for Windows software (SPSS, Inc.). P<0.05 was considered to be significant.
Complete AV block was induced via radiofrequency ablation, and electronic pacemakers were implanted into the right ventricular apical endocardium and set a VV1 45 bpm. ECG and 24-h monitoring were performed daily for 14 days. Beta-adrenergic responsiveness was also evaluated as described above.
Escape time was evaluated daily by performing three 30-s periods of ventricular overdrive pacing at 80 bpm followed by an abrupt cessation of pacing. The average time between the final electronically paced beat and the first intrinsic beat was then determined. […] There was a different result with regard to basal heart rates throughout the 14-day period, however.

[3] = tested on: newborn rat ventricular myocytes; experiment: Whole-cell voltage clamp of expressed HCN current in newborn rat ventricular myocytes; assay type: cell-based; settings: for V1/2 / s: fit of average data; for current density: measured at −135 mV
Protocol: Adult rats were anesthetized with ketamine-xylazine before cardiectomy, and neonatal rats decapitated. Newborn rat ventricular myocyte cultures were prepared as previously described (Protas and Robinson, 1999). Briefly, 1-2-day-old Wistar rats were euthanized, hearts were quickly removed and ventricles were dissociated using a standard trypsinization procedure. Myocytes were harvested, preplated to reduce fibroblast proliferation, cultured initially in serum-containing medium (except when being transfected with plasmids as described below), and then incubated in serum free medium (SFM) at 37° C., 5% CO2 after 24 h. Action potential studies were conducted on 4-day-old monolayer cultures plated directly onto fibronectin-coated 9×22 mm glass coverslips. For voltage clamp experiments, 4-6 day old monolayer cultures were resuspended by brief (2-3 min) exposure to 0.25% trypsin, then replated onto fibronectin-coated coverslips and studied within 2-8 h.
Adenoviral infection of the newborn ventricular myocytes was performed on cell monolayer cultures 4 days after initial plating. Cells were exposed to a virus-containing mix (m.o.i. 20, in 250 μl of culture medium) for 2 h, rinsed twice and incubated in SFM at 37° C., 5% CO2 for 24-48 hours prior to the cells being resuspended as described above for electrophysiological study.
The whole-cell patch clamp technique was employed to record mHCN2 current from cultured myocytes. Experiments were carried out on cells superfused at 35° C. The external solution contained (mM): NaCl, 140; NaOH, 2.3; MgCl2, 1; KCl, 10; CaCl2, 1; HEPES, 5; glucose, 10; pH 7.4. MnCl2 (2 mM) and BaCl2 (4 mM) were added to block other currents. The pipette solution contained (mM): aspartic acid, 130; KOH, 146; NaCl, 10; CaCl2, 2; EGTA-KOH, 5; Mg-ATP, 2; HEPES-KOH, 10; pH 7.2.
To measure the HCN activation curve, a standard two-step protocol was employed. Hyperpolarizing steps from −25 to −135 mV for mHCN2 and from −5 or −15 to −135 mV for mE324A were applied from a holding potential of −10 mV, followed by a tail current step (to −125 or −135 mV). The duration of test steps was longer at less hyperpolarized potential for mHCN2 channels, to more closely approach steady-state activation at all voltages. The normalized plot of tail current versus test voltage was fit with a Boltzmann function and then the voltage of half maximum activation (V1/2) and slope factor(s) were defined from the fitting. Activation kinetics were determined from the same traces, while deactivation kinetics were determined from traces recorded at each test potential after achieving full activation by a prepulse to −135 mV. Time constants were then obtained by fitting the early time course of activation or deactivation current traces with a monoexponential function; the initial delay and any late slow activation or deactivation phase were ignored (Qu et al., 2001; Altomare et al., 2001). Current densities are expressed as the value of the time-dependent component of current amplitude, measured at the end of the test potential and normalized to cell membrane capacitance. Records were not corrected for liquid junction potential, which was previously determined to be 9.8 mV under these conditions (Qu et al., 2001).

Xenopus oocytes = experiment: Two-microelectrode voltage clamp of expressed HCN current in Xenopus oocytes; assay type: cell-based, Xenopus laevis
[4] = tested on: cell-free patches from Xenopus oocytes; settings: cited from earlier work
[5] = 10 μM cAMP in the pipette solution

B1: mHCN2: mouse HCN2 pacemaker ion channel (GenBank AJ225122), expressed from plasmid, cRNA or adenoviral construct AdmHCN2 (protein, UniProt O88703 1-863, looked up)
Potassium/sodium …: MDARGGGGRPGDSPGTTPAPGPPPPPPPPAPPQPQPPPAPPPNPTTPSHPESADEPGPRARLCSRDSACTPGAAKGGANGECGRGEPQCSPEGPARGPKVSFSCRGAASGPSAAEEAGSEEAGPAGEPRGSQASFLQRQFGALLQPGVNKFSLRMFGSQKAVEREQERVKSAGAWIIHPYSDFRFYWDFTMLLFMVGNLIIIPVGITFFKDETTAPWIVFNVVSDTFFLMDLVLNFRTGIVIEDNTEIILDPEKIKKKYLRTWFVVDFVSSIPVDYIFLIVEKGIDSEVYKTARALRIVRFTKILSLLRLLRLSRLIRYIHQWEEIFHMTYDLASAVMRICNLISMMLLLCHWDGCLQFLVPMLQDFPSDCWVSINNMVNHSWSELYSFALFKAMSHMLCIGYGRQAPESMTDIWLTMLSMIVGATCYAMFIGHATALIQSLDSSRRQYQEKYKQVEQYMSFHKLPADFRQKIHDYYEHRYQGKMFDEDSILGELNGPLREEIVNFNCRKLVASMPLFANADPNFVTAMLTKLKFEVFQPGDYIIREGTIGKKMYFIQHGVVSVLTKGNKEMKLSDGSYFGEICLLTRGRRTASVRADTYCRLYSLSVDNFNEVLEEYPMMRRAFETVAIDRLDRIGKKNSILLHKVQHDLSSGVFNNQENAIIQEIVKYDREMVQQAELGQRVGLFPPPPPPQVTSAIATLQQAVAMSFCPQVARPLVGPLALGSPRLVRRAPPGPLPPAASPGPPAASPPAAPSSPRAPRTSPYGVPGSPATRVGPALPARRLSRASRPLSASQPSLPHGVPAPSPAASARPASSSTPRLGPAPTARTAAPSPDRRDSASPGAASGLDPLDSARSRLSSNL
rate of idioventricular rhythms [1]: 50-60 bpm
share of animals with 50% or more increase that required the highest dose of epinephrine ([2]; 2 μg/kg/min): 33%
beats triggered by the electronic pacemaker, of all beats ([2]; 14 days, electronic pacemaker set at VVI 45 bpm): 26±6%
arrhythmias during epinephrine infusion ([2]; day 14): two animals developed ventricular arrhythmias
mean basal heart rate compared with saline group ([2]; days 1-7 and 8-14): significantly faster
animals with less than a 50% increase in rate ([2]; epinephrine 1.0, 1.5, 2.0 μg/kg/min, day 14): 50%
control rate prior to epinephrine ([2]; representative animal, day 14): 44 bpm
rate with epinephrine ([2]; representative animal, epinephrine 1 μg/kg/min): 60 bpm
shift of V1/2 by cAMP [3, 5]: 9.7 mV
percentage of myocytes expressing current ([3]; 6 matched cell cultures): 74.5%
midpoint of activation ([3]; HCN2 virus characterized in neonatal rat myocytes): −69.3 mV
activation τ ([3]; at −65 mV): 639 ± 72 ms
V1/2 [3, 5]: −59.9 mV
s [3, 5]: 11.0 mV
V1/2 ([3]; absence of cAMP): −69.6 mV
s ([3]; absence of cAMP): 10.8 mV
slope factor s ([3]; mean of individual Boltzmann fits): 10.7±0.5 mV
V1/2 (voltage of half maximum activation) ([3]; mean of individual Boltzmann fits, adenoviral infection): −66.1±1.5 mV
current density [3]: 53.5±8.7 pA/pF
current density ([3]; listed as HCN2): 53.5±8.3 pA/pF
activation more negative than mE324A (Xenopus oocytes): 35 mV
effect of Cs+ on inward current (Xenopus oocytes; 5 mM Cs+): blocked; also recorded: large inhibition
shift of activation curve to more positive potentials by cAMP [4]: 17 mV
